Tested on: recombinant proinsulin protein

## tissue transglutaminase
  substrate of the deamidase in test tube: recombinant proinsulin protein was shown to be a substrate for TG2
